For assay [1], the target named is MBP-HIGD1A chimera (hypoxia-inducible domain family member 1A with an N-terminal maltose binding protein tag) (human) (UniProt Q9Y241). Put plainly: ITC.
For another assay, the target named is wild-type cytochrome c (human, UniProt P99999 1-105). Put plainly: ITC.
wild-type cytochrome c, sequence (P99999 whole entry): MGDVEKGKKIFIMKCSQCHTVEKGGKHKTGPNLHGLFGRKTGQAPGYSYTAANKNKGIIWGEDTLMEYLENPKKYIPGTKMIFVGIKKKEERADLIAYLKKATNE

Take “Y97pCMF cytochrome c (phosphomimetic mutant) (from UniProt P99999 1-105) (natural protein)”: in assay [1], the stoichiometry N came out at 1.

As to MSTDTGVSLPSYEEDQGSKLIRKAKE (domain or fragment, human, UniProt Q9Y241 1-26, looked up) [N-terminal domain of HIGD1A (HIGD1A 1-26)], in the assay with wild-type cytochrome c, the binding result was “binds”.

Values taken from article PMC6077723 (Proceedings of the National Academy of Sciences of the …, 2018).
